Substitutions are numbered along the chain they refer to.

The EC50 is the concentration giving half of the maximal effect. The low end stands for an effect from little substance, the high end for a need for much substance.

In test [1] the target is T1, DENV1 EDIII, polyhistidine-AviTag, produced in HEK-293-6E cells (DENV1).
T1 construct: also called EDIII of DENV1
The experiment in a line: cross-reactivity ELISA. (An ELISA detects its analyte on a solid surface through an enzyme-linked reagent.)

In test [2] the target is T2, ZIKV E Domain III ([..]), polyhistidine-AviTag, produced in HEK-293-6E cells (ZIKV).
T2 construct: also called ZEDIII; ZIKV EDIII
The experiment in a line: ELISA on coated ZIKV EDIII.

Test [3] deals with DENV3 EDIII, polyhistidine-AviTag (DENV3). The experiment in a line: cross-reactivity ELISA.
For test [4], the target named is ZIKV E protein (2015 Puerto Rican PRVABC59 strain) on virus (ZIKV, strain PRVABC59). The experiment in a line: cell-based or functional assay.
Test [5] deals with DENV1 E protein (strain PUO-359) on RVPs or on virus (DENV1, strain PUO-359). The experiment in a line: cell-based or functional assay.

T1 sequence (P17763 577-674, tags left off): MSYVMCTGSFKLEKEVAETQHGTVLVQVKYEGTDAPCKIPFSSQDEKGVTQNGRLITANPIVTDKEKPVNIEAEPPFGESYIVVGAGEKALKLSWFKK

B1: Z054 (BRA138_94) (antibody, V domains shown)
VH: QLQLQESGPRLVKPSETLFLTCTVSGDSISSSSYFWGWIRQPPGKGLEWIGSISYSGSTYYNPSLKSRVTISVDTSKNQFSLKLSSVTAADTVVYYCAKHLYSSSWNIGSSFDSWGPGTLVTVSS
VL: EIVLTQSPATLSLSPGERATLSCRASQSVSIYLAWYQQKPGQAPRLLIYDASSRATGIPARFSGSGSGTDFTLTISSLEPEDFAVYYCQQRSNWPVYTFGQGTKVEIK
Consider B1, for which, in test [1], the binding result was “no binding (tested: 10 µg/ml)”. In test [2], this molecule returned an EC50 of over 10 µg/mL.

B2: Z004 (MEX18_89) (antibody, V domains shown)
VH: EVQLLESGGGLVQPGGSLRLTCATSGFTFRDYAMSWVRQAPGKGLEWVSSYSGIDDSTYYADSVKGRFTISRDNSKSTLSLHMNSLRAEDSALYFCAKDRGPRGVGELFDSWGQGTLVTVSS
VL: DIQMTQSPSTLSASVGDRVTITCRASQSISKWLAWYQQKPGKAPKLLIYTTSTLKSGVPSRFSGSGSGTEFTLTISSLQPDDFATYYCQHFYSVPWTFGQGTKVEIK
notes: also called biotin-Z004 (biotinylated form)
As to B2, in test [3], the binding result is listed as “no binding (tested: 10 µg/ml)”. Moreover, in test [4], the “IC50, plaque reduction neutralization test (PRNT)” value is 0.0022 µg/mL. Also, in test [5], the “IC50, DENV1 luciferase RVPs” value was determined as 0.0016 µg/mL and the “IC50, flow cytometry with authentic DENV1” value turned out to be 0.0164 µg/mL.

B3: Z001 (MEX18_21) (antibody, V domains shown)
VH: EVQLLESGGGLVQPGGSRRLSCATSGFSFDTYAMSWLRQAPGKGLEWVSSFSGLDDSTYYADSVKGRFTISRDNSKNTLYLQMNSLRAEDTAIYYCAKDRGPRGIGELFDFWGQGTLVTVSS
VL: B2 VL with K31R, T50K, G57E, Y92H
In the case of B3, the binding result in test [3] is “no binding (tested: 10 µg/ml)”.

B4: Z028 (MEX84_p4-53) (antibody, V domains shown)
VH: EVQLLESGGGLVQPGGSLRLSCAASGFTFSAYAMSWVRQAPGKGLEWVSSINGHSDSTYFADSVKGRFTISRDNSKNTLYLQMNSLRAEDTALYYCAKDRLREGIGELFHSWGQGTLVTVSS
VL: B2 VL with V15I, S30T, K31P, L46F, T50Q, T53I, K55E, F91Y, Y92H, V94Y
On to B4, for which the binding result in test [3] is on record as “no binding (tested: 10 µg/ml)”.

B5: Z021 (MEX84_p4-23) (antibody, V domains shown)
VH: QVQLQESGPGLVKPSETLSLTCTVSGGSIDTYYWSWIRQTPGKGLEWIGCFYYSVDNHFNPSLESRVTISVDTSKNQFSLKMTSMTASDTAVYYCARNQPGGRAFDYWGPGTLVTVSS
VL: EIVLTQSPATLSLSPGQRATLSCRASQSVSNYFAWYQQKPGQAPRLLIYDTSKRATGTPARFSGSGSGTDFTLTISSLEPEDFAVYYCQERNNWPLTWTFGLGTKVEIK
On to B5, for which, in test [4], the “IC50, plaque reduction neutralization (PRNT)” value is 0.004 µg/mL. Moreover, in test [5], the “IC50, DENV1 neutralization (flow cytometry)” value was found to be 0.0101 µg/mL.

B6: Z044 (BRA138_46) (antibody, V domains shown)
VH: QVQLVQSGAEVKKPGASVKVSCKASGYTFTSTYIHWVRQAPGQGLEWMGIINPSSSNTNYAQKFQGRVTMTRDTSTSTVYMELSSLRSEDTAVYYCARDFGGYSSSSVSDAFDIWGQGTMVTVSS
VL: QSALTQPASVSGSPGQSITISCTGTSSDVGSFNLVSWYQQHPGKAPKLIIYEVSKRPSGVSNRFSGSKSGNTASLTISGLQAEDEVHYYCCSYAGSSRFVFGTGTKVTVL
In the case of B6, the binding result in test [1] is on record as “no binding (tested: 10 µg/ml)”. The EC50 in test [2] is over 10 µg/mL.

B7: Z006 (MEX105_42) (antibody, V domains shown)
VH: EVQLLESGGGLVQPGGSLRLSCAASGFTFKNYAMAWVRQAPGKGLEWVSLLYNSEESTYYADSVKGRFTISRDNSKNTLFLQMNRLRVEDTAVYFCVRDRSNGWSSINLWGRGTLVTVSS
VL: DIQMTQSPSTLSASVGDRVTMTCRASQTISGWLAWYQQKPGKAPKLLIYQASRLESGIPSRFSGSGSGTEFTLTISSLQPDDVATYYCQQYSTFWTFGLGTKVEIK
Take B7: the binding result in test [3] was “no binding (tested: 10 µg/ml)”.

B8: Z010 (MEX105_88) (antibody, V domains shown)
VH: EVQLLESGGGLVQPGGSLRLSCAASGFTFSNYAMAWVRQAPGKGLEWVSLIYSGDDSTYYADFVKGRFTISRHNSKNTLSLQMNSLRAEDTAIYYCVKDRGTGWSSIVHWGQGTLVTVSS
VL: B7 VL with M21I, G31N, R53S, I58V, V83F, F94Y, L99Q
As for B8, in test [3], the binding result is on record as “no binding (tested: 10 µg/ml)”.

B9: Z032 (BRA112_24) (antibody, V domains shown)
VH: EVQLLESGGRLVQPGGSLTLSCAASGFPFSTYAMSWLRQAPGKGLEWVSGITGDSGSTYYAASVKGRFTISRDNSKNTLYLQMNSLTADDTAVYYCAKDRLHSGLGELFSYWGQGTLVTVSS
VL: DIQMTQSPSTLSASVGDRVNITCRASQSINQWLAWYQQKPGKAPKFLMYKASTLETGVPSRFSGSGSGTEFTLTISSLQPDDFATYYCQHYFSYPWTFGQGTKVEIK
In test [2], B9 returned an EC50 of 0.0195 µg/mL.

B10: Z035 (BRA112_71) (antibody, V domains shown)
VH: EVQLLESGGGLIQPGGSLRLSCAASGFTFSSYAMSWVRQAPGKGLEWVSGISGSGGASDNGASRYYADSVKGRFSISRDNSKNTVYLQMNSLRAEDTAVYYCAKDRLSGGFGELFQKWGQGTLVTVSS
VL: B9 VL with S12A, N20T, S28N, Q31S, M48I, T56S, V58A, F92Y, W96Y
For B10, the binding result in test [3] was “no binding (tested: 10 µg/ml)”.

B11: Z031 (BRA112_46) (antibody, V domains shown)
VH: EVQLLESGGGLVQPGGSLRLSCVASGFTFGSYGMAWVRQAPGKGLEWISSISSIDPSTYYADSVKGRFTVSRDNSENTLYLHMSSLKVEDTAVYFCAKDRLNGGFGELFASWGQGTLVTVSS
VL: DIQMTQSPSTLSASVGDSVTITCRASQSISSWLAWYQQKPGKAPKFLIHKASSLESGIPSRFSGSGSGTEFTLTINNLQPDDFATYYCQHYHSYPWTFGQGTKVEIK
For the molecule B11, in test [3], the binding result was “no binding (tested: 10 µg/ml)”.

B12: Z040 (BRA12_81) (antibody, V domains shown)
VH: EVQLLESGGGLVQPGGSLRLSCAASGFTFSTYAMSWVRQAPGKGLEWVSAISGSGRSTYYADSVKGRFTISRDNSKNTLYLQMNSLRGEDTAVYYCAKSSGGHNWNYVDYYYGMDVWGQGTTVTVSS
VL: DIQLTQSPSFLSASVGDRVTITCRASQGISSYLAWYQQKPGKAPKLLIYAASTLQSGVPSRFSGSGSGTEFTLTISSLQPEDFATYYCQQLNSYPVTFGPGTKVDIK
In the case of B12, in test [1], the binding result is recorded as “no binding (tested: 10 µg/ml)”. In test [2], the EC50 was over 10 µg/mL.

B13: Z038 (BRA12_2) (antibody, V domains shown)
VH: EVQLLESGGGLVQPGGSLRLSCEASGFTFSNYAMNWVRQAPGKGLEWVSTLGATDNSGDSTYYVESAKGRFTISRDNSKNTLYLQMNSLRVEDTAVYFCAKDRTGNIGAGTGYFDKWGQGTLVTVSS
VL: DIQMTQSPSTLSASVGDRVTITCRASHRISGWLAWYQQKPGKAPKLLIYQASGLESGVPSRFSGSGYGTEFTLTISSLQADDFATYYCQQYNNYPWTFGQGTKVEIK
notes: also called BRA12_02
With B13, the binding result in test [3] was “no binding (tested: 10 µg/ml)”.

These data come from patent publication US20200147199A1 (ROCKEFELLER UNIVERSITY, published 2020).
